# B1: recombinant human D-dopachrome tautomerase (natural protein, UniProt P30046 1-118, looked up)
# chain: MPFLELDTNLPANRVPAGLEKRLCAAAASILGKPADRVNVTVRPGLAMALSGSTEPCAQLSISSIGVVGTAEDNRSHSAHFFEFLTKELALGQDRILIRFFPLESWQIGKIGTVMTFL
# notes: D-dopachrome tautomerase (DDT), human; The protein was active as a tautomerase, so the initiator methionine is probably removed (surmise); also called rhDDT; DDT; source: E. coli BL21(DE3), pET20b(+), purified (Q sepharose, phenyl sepharose, Superdex75 SEC)
# B2: recombinant murine D-dopachrome tautomerase (natural protein, UniProt O35215 1-118, looked up)
# chain: MPFVELETNLPASRIPAGLENRLCAATATILDKPEDRVSVTIRPGMTLLMNKSTEPCAHLLVSSIGVVGTAEQNRTHSASFFKFLTEELSLDQDRIVIRFFPLEAWQIGKKGTVMTFL
# notes: D-dopachrome tautomerase (DDT), murine; also called rmDDT; murine DDT; source: E. coli BL21(DE3), pET20b(+), purified (Q sepharose, phenyl sepharose, Superdex75 SEC)
# Molecular target: the molecule itself
# Assay: SEC; Superdex75 column in 20 mM sodium phosphate buffer, pH 8.0; last step of the purification
row,Protein,stoichiometry N
1,B1,3
2,B2,3

# Source: article PMC8185224 (EBioMedicine, 2021)
